Assay [1] has as its target T1, mouse FAP (Mus musculus, UniProt P97321).
T1 construct: biotinylated His, Avi tag, mouse FAP (26-761, FAP-M82Q5); His; Avi tag (biotinylated); purchased AcroBiosystems FAP-M82Q5
T1 sequence (P97321 26-761): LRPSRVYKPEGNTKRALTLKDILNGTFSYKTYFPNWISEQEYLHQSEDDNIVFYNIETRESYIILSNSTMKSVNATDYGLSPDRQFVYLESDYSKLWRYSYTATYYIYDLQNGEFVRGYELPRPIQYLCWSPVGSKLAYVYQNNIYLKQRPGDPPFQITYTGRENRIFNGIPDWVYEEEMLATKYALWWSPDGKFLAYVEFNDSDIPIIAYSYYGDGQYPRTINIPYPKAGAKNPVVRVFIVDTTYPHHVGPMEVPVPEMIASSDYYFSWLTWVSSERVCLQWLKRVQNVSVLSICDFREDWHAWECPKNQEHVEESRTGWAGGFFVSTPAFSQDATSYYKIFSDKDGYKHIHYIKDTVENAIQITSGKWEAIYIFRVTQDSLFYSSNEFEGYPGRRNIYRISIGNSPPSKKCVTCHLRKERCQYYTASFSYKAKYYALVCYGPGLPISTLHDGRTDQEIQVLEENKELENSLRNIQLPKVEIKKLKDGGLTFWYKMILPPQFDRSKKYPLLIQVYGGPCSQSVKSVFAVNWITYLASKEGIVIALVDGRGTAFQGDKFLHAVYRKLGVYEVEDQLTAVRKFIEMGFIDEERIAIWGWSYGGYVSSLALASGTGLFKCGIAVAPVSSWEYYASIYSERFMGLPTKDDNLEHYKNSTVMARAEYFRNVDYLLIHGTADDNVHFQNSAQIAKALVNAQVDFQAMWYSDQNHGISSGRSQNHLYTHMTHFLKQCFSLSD
The assay is described as follows: Surface plasmon resonance (SPR) for peptide affinity, mouse FAP. Type of assay: binding. The method, boiled down: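 KD values come from a 1:1 kinetic fit of single-cycle SPR data: 8 peptide concentrations, 25 °C, 30 μL/min, HEPES-buffered saline pH 7.6 with 2% DMSO. Targets were His/Avi-tagged human (26-760) or mouse (26-761) FAP, amine-coupled to CM5 or held on a CAPture chip.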

In a further assay the target is T2, human FAP (Homo sapiens, UniProt Q12884).
T2 construct: the biotinylated His, Avi tag, human FAP (26-760, FAP-H82Q6); His; Avi tag (biotinylated); purchased AcroBiosystems FAP-H82Q6
T2 sequence (Q12884 26-760): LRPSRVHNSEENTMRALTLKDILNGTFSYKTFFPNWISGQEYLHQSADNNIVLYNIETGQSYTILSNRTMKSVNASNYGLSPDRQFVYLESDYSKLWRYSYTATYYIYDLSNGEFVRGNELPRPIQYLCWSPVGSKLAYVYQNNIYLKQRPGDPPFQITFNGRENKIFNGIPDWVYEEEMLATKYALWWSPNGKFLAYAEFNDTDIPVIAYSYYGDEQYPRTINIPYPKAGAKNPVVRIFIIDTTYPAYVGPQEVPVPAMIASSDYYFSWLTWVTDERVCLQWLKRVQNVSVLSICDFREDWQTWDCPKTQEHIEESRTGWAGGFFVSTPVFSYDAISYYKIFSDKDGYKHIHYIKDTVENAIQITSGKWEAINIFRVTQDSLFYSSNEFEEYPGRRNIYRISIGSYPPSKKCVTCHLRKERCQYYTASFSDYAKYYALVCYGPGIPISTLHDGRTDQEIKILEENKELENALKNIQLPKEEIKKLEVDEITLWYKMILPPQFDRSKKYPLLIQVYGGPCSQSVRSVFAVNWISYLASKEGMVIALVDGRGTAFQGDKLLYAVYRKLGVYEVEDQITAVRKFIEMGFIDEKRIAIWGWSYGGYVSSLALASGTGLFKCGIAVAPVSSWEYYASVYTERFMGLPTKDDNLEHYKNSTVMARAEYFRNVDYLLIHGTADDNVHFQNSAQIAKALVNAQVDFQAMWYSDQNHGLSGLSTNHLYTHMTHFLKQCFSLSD
The assay is described as follows: Enzymatic FAP competition assay (Z-Gly-Pro-AMC fluorescence), human FAP. Format: biochemical. Particulars: read-out: h. FAP, Enz., IC50. In short, it runs like this:
(§1)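 IC50 values come from curve fitting of duplicate % inhibition data on AMC fluorescence (ex 380, em 460 nm) after 4 h at 22-24° C with 50 μM Z-Gly-Pro-AMC. Beforehand, peptides up to 1 μM (14 levels) sat 24 h with 0.01 nM human (26-760) or mouse (26-761) tagged FAP in phosphate buffer pH 7.5, NaCl, Tween20, 1% DMSO.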

The target in assay [2] is T1, mouse FAP. The assay is described as follows: Enzymatic FAP competition assay (Z-Gly-Pro-AMC fluorescence), mouse FAP. Type of assay: biochemical. Particulars: read-out: m. FAP, Enz., IC50. In short, it runs like this:
as §1

Starred links: 1 amine or outer side, 2 acyl side, 3 side chain; linkers in the order of their positions; H or OH if unused. Non-standard residues stand in square brackets, D forms with d. Residues, ends and D or L forms follow the SMILES beside them. Groups on a side chain read outwards from the residue. *: point of attachment. F(4amPEG2NHDOTA-Lu) = lutetium complex of (S)-2,2',2''-(10-(1-(4-(2-amino-2-carboxyethyl)phenyl)-3,12-dioxo-5,8-dioxa-2,11-diazatridecan-13-yl)-1,4,7,10-tetraazacyclododecane-1,4,7-triyl)triacetic acid (Phe with 4-aminomethyl-PEG2-DOTA-Lu), O=C([O-])CN1CCN(CC(=O)[O-])CCN(CC(=O)NCCOCCOCC(=O)NCc2ccc(C[C@H](N[*:1])C(=O)[*:2])cc2)CCN(CC(=O)[O-])CC1.[Lu+3]; F4(amMeBAlaDOTALu) = lutetium complex of (S)-2,2',2''-(10-(2-((3-((4-(2-amino-2-carboxyethyl)benzyl)amino)-3-oxopropyl)(methyl)amino)-2-oxoethyl)-1,4,7,10-tetraazacyclododecane-1,4,7-triyl)triacetic acid (Phe with 4-aminomethyl-N-methyl-βAla, CN(CCC(=O)NCc1ccc(C[C@H](N[*:1])C(=O)[*:2])cc1)C(=O)CN1CCN(CC(=O)[O-])CCN(CC(=O)[O-])CCN(CC(=O)[O-])CC1.[Lu+3]; F(4amPEG2NHDOTA-Ga) = gallium complex of (S)-2,2',2''-(10-(1-(4-(2-amino-2-carboxyethyl)phenyl)-3,12-dioxo-5,8-dioxa-2,11-diazatridecan-13-yl)-1,4,7,10-tetraazacyclododecane-1,4,7-triyl)triacetic acid (Phe with 4-aminomethyl-PEG2-DOTA-Ga), O=C([O-])CN1CCN(CC(=O)[O-])CCN(CC(=O)NCCOCCOCC(=O)NCc2ccc(C[C@H](N[*:1])C(=O)[*:2])cc2)CCN(CC(=O)[O-])CC1.[Ga+3]; F4(amBAlaDOTALu) = lutetium complex of (S)-2,2',2''-(10-(2-((3-((4-(2-amino-2-carboxyethyl)benzyl)amino)-3-oxopropyl)amino)-2-oxoethyl)-1,4,7,10-tetraazacyclododecane-1,4,7-triyl)triacetic acid (Phe with 4-aminomethyl-βAla-DOTA-Lu), O=C([O-])CN1CCN(CC(=O)[O-])CCN(CC(=O)NCCC(=O)NCc2ccc(C[C@H](N[*:1])C(=O)[*:2])cc2)CCN(CC(=O)[O-])CC1.[Lu+3]; F4(amGlyDOTALu) = lutetium complex of (S)-2,2',2''-(10-(2-((2-((4-(2-amino-2-carboxyethyl)benzyl)amino)-2-oxoethyl)amino)-2-oxoethyl)-1,4,7,10-tetraazacyclododecane-1,4,7-triyl)triacetic acid (Phe with 4-aminomethyl-Gly-DOTA-Lu), O=C([O-])CN1CCN(CC(=O)[O-])CCN(CC(=O)NCC(=O)NCc2ccc(C[C@H](N[*:1])C(=O)[*:2])cc2)CCN(CC(=O)[O-])CC1.[Lu+3]; K(COpipzaa) = N6-(4-(carboxymethyl)piperazine-1-carbonyl)-L-lysine, O=C(NCCCC[C@H](N[*:1])C(=O)[*:2])N1CCN(CC(=O)[*:3])CC1; F4(METRIAZOLYLMENHDOTA-Lu) = Phe with 4-(methyl-triazolyl-methyl-NH-DOTA), Lu complex; hS(Pr) = O-propyl-L-homoserine, CCCOCC[C@H](N[*:1])C(=O)[*:2]; Phe(4-CH2NH2) = NCc1ccc(C[C@H](N)C(=O)O)cc1; Piperazinyl(4-CH2COOH) = O=C(O)CN1CCN(*)CC1; Nicotinoyl(6-F) = O=C(c1ccc(F)nc1)*; NMeF = CN[C@@H](Cc1ccccc1)C(=O)O; Aoc(2) = CCCCCC[C@H](N)C(=O)O; Ahp(2) = CCCCC[C@H](N)C(=O)O; AEEA = NCCOCCOCC(=O)O; CO = O=C([*:1])[*:2] Some results are limits rather than exact numbers.

As for `CCCCCC[C@@H]1NC(=O)[C@H](Cc2ccc(CNC(=O)COCCOCCNC(=O)c3ccc(F)nc3)cc2)NC(=O)[C@H](Cc2ccccc2)N(C)C(=O)CNC(=O)CNC(=O)[C@H]2CCCN2C(=O)[C@H](CC(=O)O)NC(=O)[C@H](CCCCNC(=O)N2CCN(CC(=O)O)CC2)NC(=O)CNC(=O)[C@H](Cc2c[nH]c3ccccc23)NC1=O` [Example C55, Gly-Gly-NMePhe-F(4amPEG2NHCOPy3(4F))-Aoc-Trp-Gly-K(COpipzaa)-Asp-D-Pro] (cyclo([Aoc(2)]WGK([CO-Piperazinyl(4-CH2COOH)])D[dP]GG[NMeF][Phe(4-CH2NH2)]([AEEA-Nicotinoyl(6-F)]))), the equilibrium dissociation constant (Kd) at mouse FAP [1] was under 0.014 nM. The IC50 on human FAP amounted to 0.006 nM; on mouse FAP [2], 0.022 nM.
On the same counts, the results for “Glu-Gly-NMe3PyA-F(4amPEG2NHDOTA-Lu)-hS(Pr)-W7N-Gly-K(COpipzaa)-Asp-D-Pro [Example C7]” are under 0.068 nM, 0.014 nM and 0.034 nM.
In the same order, the values of “Glu-Gly-NMePhe-F(4amPEG2NHDOTA-Ga)-hS(Pr)-Trp-Gly-K(COpipzaa)-Asp-D-Pro (cyclo(EG[NMeF][F(4amPEG2NHDOTA-Ga)][hS(Pr)]WG[K(COpipzaa)]D[dP]); also: Ga complex of DOTA) [Example C45]” are under 0.023 nM, 0.019 nM and 0.06 nM.
On the same counts, the results for “Glu-Gly-NMePhe-F(4amPEG2NHDOTA-Lu)-hS(Pr)-Trp-Gly-K(COpipzaa)-Asp-D-Pro (cyclo(EG[NMeF][F(4amPEG2NHDOTA-Lu)][hS(Pr)]WG[K(COpipzaa)]D[dP]); also: Lu complex of DOTA) [Example C5]” are under 0.084 nM, 0.019 nM and 0.049 nM.
Take “Gly-Gly-NMe3PyA-F(4amPEG2NHDOTA-Lu)-hS(Pr)-W7N-Gly-K(COpipzaa)-Asp-D-Pro [Example C3]”: the dissociation constant Kd on mouse FAP [1] was under 0.041 nM. In addition, the half-inhibitory concentration (IC50) is 0.007 nM at human FAP and 0.019 nM on mouse FAP [2].
On the same counts, the results for “Gly-Gly-NMePhe-F4(METRIAZOLYLMENHDOTA-Lu)-Ahp-Trp-Gly-Tyr-Asp-D-Pro (cyclo(GG[NMeF][F4(METRIAZOLYLMENHDOTA-Lu)][Ahp(2)]WGYD[dP]); also: Lu complex) [Example C14]” are 0.048 nM, 0.009 nM and 0.024 nM.
In the same order, the values of “Gly-Gly-NMePhe-F4(amBAlaDOTALu)-Ahp-Trp-Gly-Tyr-Asp-D-Pro (cyclo(GG[NMeF][F4(amBAlaDOTALu)][Ahp(2)]WGYD[dP]); also: Lu complex) [Example C10]” are 0.033 nM, 0.01 nM and 0.024 nM.
On the same counts, the results for “Gly-Gly-NMePhe-F4(amGlyDOTALu)-Ahp-Trp-Gly-Tyr-Asp-D-Pro (cyclo(GG[NMeF][F4(amGlyDOTALu)][Ahp(2)]WGYD[dP]); also: Lu complex) [Example C9]” are 0.032 nM, 0.01 nM and 0.024 nM.
“Gly-Gly-NMePhe-F4(amMeBAlaDOTALu)-Ahp-Trp-Gly-Tyr-Asp-D-Pro (cyclo(GG[NMeF][F4(amMeBAlaDOTALu)][Ahp(2)]WGYD[dP]); also: Lu complex) [Example C11]” displayed a Kd with mouse FAP [1] of 0.028 nM. Further, the results for the concentration for half-maximal inhibition (IC50) with human FAP and with mouse FAP [2] were 0.009 nM and 0.024 nM, respectively.

What is called Kd is the equilibrium constant for the complex coming apart. Low values mean tighter binding, high ones weaker binding. One may read the IC50 as the concentration needed to halve the response being measured.

For the origin of these results see patent US20250090699A1, “FAP TARGETING CYCLIC PEPTIDES AND CONJUGATES THEREOF” (Novartis AG, priority 2023, published 2025).
